The text below walks through data of PMC5913336, “True equilibrium measurement of transcription factor-DNA binding affinities using automated polarization microscopy”.

In general, Kd refers to the concentration at which binding is half-saturated. The term koff denotes a measure of how fast the partners let go of each other.

The target of data set [1] is T1, Bicoid DBD-GST (Bcd) (UniProt P09081 83-170).
T1 sequence: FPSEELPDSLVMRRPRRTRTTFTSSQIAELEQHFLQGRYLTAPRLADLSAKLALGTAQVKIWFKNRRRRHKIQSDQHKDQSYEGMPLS
The data set can be described thus: competitive fluorescence anisotropy (HiP-FA); mean of replicates 2.884, 2.6855; HiP-FA: 33 mM phosphate pH 7.0, 90 mM NaCl, 0.01% Tween 20, 0.1 mM DTT, 0.5% agarose; conventional titration and EMSA: 20 mM Tris-acetate pH 7.0, 50 nM (sic) NaCl, 0.01% Tween-20, 0.1 mM DTT. The following applies: protein: recombinant; tags: N-terminal GST; blunt, G:G mismatch at position 6.

The target in data set [2] is T1, Bicoid DBD-GST (Bcd). The data set can be described thus: competitive fluorescence anisotropy (HiP-FA); mean of replicates 4.834, 5.5235; HiP-FA: 33 mM phosphate pH 7.0, 90 mM NaCl, 0.01% Tween 20, 0.1 mM DTT, 0.5% agarose; conventional titration and EMSA: 20 mM Tris-acetate pH 7.0, 50 nM (sic) NaCl, 0.01% Tween-20, 0.1 mM DTT. The following applies: protein: recombinant; tags: N-terminal GST; blunt, G:G mismatch at position 6.

Data set [3] addresses T1, Bicoid DBD-GST (Bcd). The data set can be described thus: competitive fluorescence anisotropy (HiP-FA); mean of replicates 3.751, 3.7605; HiP-FA: 33 mM phosphate pH 7.0, 90 mM NaCl, 0.01% Tween 20, 0.1 mM DTT, 0.5% agarose; conventional titration and EMSA: 20 mM Tris-acetate pH 7.0, 50 nM (sic) NaCl, 0.01% Tween-20, 0.1 mM DTT. Conditions: protein: recombinant; tags: N-terminal GST; blunt, G:G mismatch at position 6.

The target of data set [4] is T2, Bcd homeodomain (Drosophila melanogaster, UniProt P09081-2 77-166).
T2 sequence: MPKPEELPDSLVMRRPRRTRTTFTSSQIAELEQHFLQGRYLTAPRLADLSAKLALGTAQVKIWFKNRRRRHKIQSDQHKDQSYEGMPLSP
The data set can be described thus: EMSA; 20 mM Tris-acetate pH 7.0, 50 "nM" NaCl as printed (probably mM), 0.01% Tween 20, 0.1 mM DTT, 10% glycerol; room temperature; 4 nM probe. The following applies: tags: N-GST (pGEX-6P-1, kept); label: Cy3.

For data set [5], the target named is T1, Bicoid DBD-GST (Bcd). The data set can be described thus: competitive fluorescence anisotropy (HiP-FA); mean of replicates 6.544, 6.784; HiP-FA: 33 mM phosphate pH 7.0, 90 mM NaCl, 0.01% Tween 20, 0.1 mM DTT, 0.5% agarose; conventional titration and EMSA: 20 mM Tris-acetate pH 7.0, 50 nM (sic) NaCl, 0.01% Tween-20, 0.1 mM DTT. Conditions: protein: recombinant; tags: N-terminal GST; blunt.

The target in data set [6] is T1, Bicoid DBD-GST (Bcd). The data set can be described thus: competitive fluorescence anisotropy (HiP-FA); mean of replicates 5.163, 4.995; HiP-FA: 33 mM phosphate pH 7.0, 90 mM NaCl, 0.01% Tween 20, 0.1 mM DTT, 0.5% agarose; conventional titration and EMSA: 20 mM Tris-acetate pH 7.0, 50 nM (sic) NaCl, 0.01% Tween-20, 0.1 mM DTT. The following applies: protein: recombinant; tags: N-terminal GST; blunt, G:G mismatch at position 6. In general terms: A gel shift assay detects complexes by their altered migration in electrophoresis.

Data set [7] concerns the target T1, Bicoid DBD-GST (Bcd). The data set can be described thus: competitive fluorescence anisotropy (HiP-FA); mean of replicates 4.889, 5.1445; HiP-FA: 33 mM phosphate pH 7.0, 90 mM NaCl, 0.01% Tween 20, 0.1 mM DTT, 0.5% agarose; conventional titration and EMSA: 20 mM Tris-acetate pH 7.0, 50 nM (sic) NaCl, 0.01% Tween-20, 0.1 mM DTT. Conditions: protein: recombinant; tags: N-terminal GST; blunt, C:C mismatch at position 6 as printed.

Data set [8] addresses T1, Bicoid DBD-GST (Bcd). The data set can be described thus: competitive fluorescence anisotropy (HiP-FA); mean of replicates 3.961, 3.634; HiP-FA: 33 mM phosphate pH 7.0, 90 mM NaCl, 0.01% Tween 20, 0.1 mM DTT, 0.5% agarose; conventional titration and EMSA: 20 mM Tris-acetate pH 7.0, 50 nM (sic) NaCl, 0.01% Tween-20, 0.1 mM DTT. The following applies: protein: recombinant; tags: N-terminal GST; blunt, G:G mismatch at position 6.

Data set [9] has as its target T1, Bicoid DBD-GST (Bcd). The data set can be described thus: competitive fluorescence anisotropy (HiP-FA); mean of replicates 5.027, 4.3975; HiP-FA: 33 mM phosphate pH 7.0, 90 mM NaCl, 0.01% Tween 20, 0.1 mM DTT, 0.5% agarose; conventional titration and EMSA: 20 mM Tris-acetate pH 7.0, 50 nM (sic) NaCl, 0.01% Tween-20, 0.1 mM DTT. The following applies: protein: recombinant; tags: N-terminal GST; blunt, G:G mismatch at position 6.

Data set [10] concerns the target T2, Bcd homeodomain. The data set can be described thus: FP; binding buffer, no gel. Conditions: tags: N-GST (pGEX-6P-1, kept); label: 5' Cy5 on strand 1.
Data set [11] deals with T1, Bicoid DBD-GST (Bcd). The data set can be described thus: competitive fluorescence anisotropy (HiP-FA); mean of replicates 2.816, 2.505; HiP-FA: 33 mM phosphate pH 7.0, 90 mM NaCl, 0.01% Tween 20, 0.1 mM DTT, 0.5% agarose; conventional titration and EMSA: 20 mM Tris-acetate pH 7.0, 50 nM (sic) NaCl, 0.01% Tween-20, 0.1 mM DTT. Conditions: protein: recombinant; tags: N-terminal GST; blunt, G:G mismatch at position 6.

Data set [12] has as its target T1, Bicoid DBD-GST (Bcd). The data set can be described thus: competitive fluorescence anisotropy (HiP-FA); mean of replicates 6.092, 5.6175; HiP-FA: 33 mM phosphate pH 7.0, 90 mM NaCl, 0.01% Tween 20, 0.1 mM DTT, 0.5% agarose; conventional titration and EMSA: 20 mM Tris-acetate pH 7.0, 50 nM (sic) NaCl, 0.01% Tween-20, 0.1 mM DTT. Conditions: protein: recombinant; tags: N-terminal GST; blunt.

B1: Bcd competitor 7 (G3C) (dsDNA)
DNA 1: TCGACGCTAATCCCTA
DNA 2: TAGGGATTAGGGTCGA
In the case of B1, in data set [1], the dissociation constant (Kd) stood at 2.79 nM.

B2: Bcd competitor 30 (C10A) (dsDNA)
DNA 1: TCGACGGTAATCCATA
DNA 2: TATGGATTACGGTCGA
For the molecule B2, the Kd in data set [2] was found to be 5.18 nM.

B3: Bcd competitor 3 (C1A) (dsDNA)
DNA 1: TCGAAGGTAATCCCTA
DNA 2: TAGGGATTACGTTCGA
In the case of B3, the Kd in data set [3] amounted to 3.76 nM.

B4: Bcd EMSA probe (dsDNA)
DNA 1: TCGACCGTAATCCCTA
DNA 2: TAGGGATTACGGTCGA
For the molecule B4, in data set [4], the dissociation constant Kd is 1.8 ± 0.2 nM.

B5: Bcd competitor 5 (G2T) (dsDNA)
DNA 1: TCGACTGTAATCCCTA
DNA 2: TAGGGATTACAGTCGA
B5: the Kd in data set [5] is 6.66 nM.

B6: Bcd competitor 32 (T11G) (dsDNA)
DNA 1: TCGACGGTAATCCCGA
DNA 2: TCGGGATTACGGTCGA
Regarding B6, in [6], the Kd amounted to 5.08 nM.

B7: Bcd competitor 4 (G2C) (dsDNA)
DNA 1: TCGACCGTAATCCCTA
DNA 2: TAGGGATTACCGTCGA
For B7, the Kd in data set [7] turned out to be 5.02 nM.

B8: Bcd competitor 31 (T11C) (dsDNA)
DNA 1: TCGACGGTAATCCCCA
DNA 2: TGGGGATTACGGTCGA
On to B8, for which the Kd in [8] came to 3.8 nM.

B9: Bcd competitor 33 (T11A) (dsDNA)
DNA 1: TCGACGGTAATCCCAA
DNA 2: TTGGGATTACGGTCGA
Turning to B9, the Kd in data set [9] was 4.71 nM.

B10: Bcd Cy5 reference (dsDNA)
DNA 1: TCGACGCTAAGCTGTA
DNA 2: TACAGCTTAGCGTCGA
As to B10, the koff in [10] came out at 0.41 s⁻¹.

B11: Bcd competitor 2 (C1T) (dsDNA)
DNA 1: TCGATGGTAATCCCTA
DNA 2: TAGGGATTACGATCGA
B11: the Kd in data set [11] came to 2.66 nM.

B12: Bcd competitor 6 (G2A) (dsDNA)
DNA 1: TCGACAGTAATCCCTA
DNA 2: TAGGGATTACTGTCGA
For B12, in [12], the Kd was determined as 5.86 nM.
